Measurements published in paper PMC13237374.

Molecular target: human medin (human) (UniProt Q08431)
Experiment: thioflavin T aggregation kinetics

- critical concentration of aggregation: 14 nM
- critical monomer concentration for aggregation: 10 to 25 nM
- elongation rate constant k+ (monomer addition to fibril ends): 5e+07 M⁻¹ s⁻¹
Substance: human medin (from UniProt Q08431 268-317) (peptide)
